# Test results: patent publication US20170233490A1 (Hoffmann-La Roche, published 2017)
# B1: anti-HER3/HER4 antibody M-05-74 (antibody, V domains shown)
# VH: QVQLQQSGAELAKPGASVKMSCKTSGYTLTDYWIHWVKQRPGQGLEWIGYINPYTGYTESNQKFKDKATLTADKSSNTAYIQLSSLTSEDSAVYYCARPYYYGDYWGQGTTLTVSS
# VL: QIVLTQSPAIMSASPGERVTITCSASSSVSYMHWFQQKPGTSPKLLIYSTSNLASGVPARFSGSGSGTSYSLTISRMEAEDAATYYCQQRSSYPFTFGSGTKLEIK
# notes: murine monoclonal IgG from hybridoma (supernatant or purified), bivalent; also called M-074; M-5-74
# Key:
# [1] = target: T1, TgSlyDΔIF; experiment: ELISA, coated antigen 0.5 µg/ml, hybridoma supernatant
# T1 construct: scaffold without hairpin insert, negative control
# T1 chain: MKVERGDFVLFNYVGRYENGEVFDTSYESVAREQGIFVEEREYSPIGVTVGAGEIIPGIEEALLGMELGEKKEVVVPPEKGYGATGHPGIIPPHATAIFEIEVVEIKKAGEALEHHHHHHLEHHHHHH
# Protocol: (§1) For the ELISA the screening an antigen down format was used. […] Hybridoma Supernatant was added to the plates and incubated for 1 h at room temperature. Bound antibody was detected with a HRP-labeled F(ab′)₂ goat anti-mouse Fcγ (Dianova) and ABTS (Roche) was used as a HRP-substrate.
# [2] = target: T2, human HER3 Extracellular Domain (ECD) (human, UniProt P21860 20-643); experiment: SPR Biacore 3000, antibody captured, 25 C
# T2 construct: human recombinant, 68 kDa; 'closed' conformation without ligand; also called Her3 ECD; Her-3 ECD
# Protocol: (§2) A CMS series sensor was mounted into the system and was normalized in HBS-ET buffer (10 mM HEPES pH 7.4, 150 mM NaCl, 3 mM EDTA, 0.005% w/v Tween 20) according to the manufacturer's instructions. The sample buffer was the system buffer supplemented with 1 mg/ml CMD (Carboxymethyldextran). The system operated at 25° C. 10000 RU RAM-Fcγ (relative units of Fcγ-fragment Rabbit Anti-Mouse IgG/Jackson Laboratories) were immobilized according to the manufacturer's instructions using EDC/NHS chemistry on all flow cells. The sensor was deactivated using 1M ethanolamine. Analytes in solution were injected at 100 μl/min at different concentration steps of 0 nM, 1.1 nM, 3.7 nM, 11.1 nM, 33.1 nM and 90 nM for 2 min. The dissociation was monitored for 5 min. Acidic regeneration of the sensor surface was achieved using three consecutive injections of 10 mM Glycine pH 1.7 at 30 μl/min for 60 sec. Kinetic data were evaluated according to a Langmuir fit.
# [3] = target: T3, TtSlyD-FKBP-Her3; experiment: SPR Biacore 3000, antibody captured, 25 C
# T3 construct: N-terminal Met present or not; also called thermo SlyD-Her3; ttSlyD-Her3
# T3 chain: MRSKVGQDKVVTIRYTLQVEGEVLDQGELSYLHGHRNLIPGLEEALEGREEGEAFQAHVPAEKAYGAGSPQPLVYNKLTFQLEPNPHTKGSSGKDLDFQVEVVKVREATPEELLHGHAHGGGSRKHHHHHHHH
# Protocol: as §2
# [4] = target: T4, HER3 ECD-HRG complex (human, UniProt P21860 20-643); experiment: SPR Biacore 3000, antibody captured, 25 C
# T4 construct: HER3 ECD preincubated with a 3- to 6-fold molar excess of Heregulin ('open' conformation); biotinylated Her3-ECD in the ribosome display; also called HER3-ECD/HRG1β
# Protocol: as §2
# [5] = target: T5, human HER2 Extracellular Domain (ECD) (human, UniProt P04626 23-652); experiment: ELISA, coated antigen
# T5 construct: human recombinant, 69.6 kDa; also called Her2 ECD; HER2_ECD
# Protocol: as §1
# (§3) As negative controls the scaffold proteins TtSlyDcas and TgSlyDΔIF were used.
# [6] = target: T2, human HER3 Extracellular Domain (ECD); experiment: ELISA, coated antigen
# Protocol: as §1, §3
# [7] = target: T1, TgSlyDΔIF; experiment: ELISA, coated antigen
# Protocol: as §1, §3
# [8] = target: T6, TgSlyDcys-Her3; experiment: ELISA, coated antigen
# T6 chain: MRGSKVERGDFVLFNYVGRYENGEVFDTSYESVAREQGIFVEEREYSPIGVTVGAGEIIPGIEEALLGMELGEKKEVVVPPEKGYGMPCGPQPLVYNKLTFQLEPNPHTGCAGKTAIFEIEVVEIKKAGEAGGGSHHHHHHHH
# Protocol: as §1, §3
# [9] = target: T7, TtSlyDcas; experiment: ELISA, coated antigen
# T7 construct: scaffold without hairpin insert, negative control
# T7 chain: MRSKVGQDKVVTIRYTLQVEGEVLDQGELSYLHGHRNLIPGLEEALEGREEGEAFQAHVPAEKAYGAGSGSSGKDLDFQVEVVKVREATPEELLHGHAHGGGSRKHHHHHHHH
# Protocol: as §1, §3
# [10] = target: T8, TgSlyDser-Her3; experiment: ELISA, coated antigen
# T8 chain: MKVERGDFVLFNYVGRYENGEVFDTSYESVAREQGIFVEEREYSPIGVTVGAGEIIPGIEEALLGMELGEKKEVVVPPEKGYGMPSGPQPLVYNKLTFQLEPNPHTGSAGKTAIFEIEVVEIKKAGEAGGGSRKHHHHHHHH
# Protocol: as §1, §3
# [11] = target: T9, human HER1 Extracellular Domain (ECD) (human, UniProt P00533 25-645); experiment: ELISA, coated antigen
# T9 construct: also called Her1 ECD; HER1-ECD
# Protocol: as §1, §3
# [12] = target: T10, TtSlyDcas-Her3; experiment: ELISA, coated antigen
# T10 chain: T3 chain
# Protocol: as §1, §3
# [13] = target: T11, TtSlyDcys-Her3; experiment: ELISA, coated antigen
# T11 chain: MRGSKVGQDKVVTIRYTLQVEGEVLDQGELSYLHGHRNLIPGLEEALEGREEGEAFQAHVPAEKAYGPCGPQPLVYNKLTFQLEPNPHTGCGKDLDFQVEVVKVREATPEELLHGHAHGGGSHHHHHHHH
# Protocol: as §1, §3
binder,measurement,setting,value
B1,binding result,[1],no binding
same,BL (Binding Late),[2],36 RU
same,MR (Molar Ratio),[2],0.2
same,kon,[2],20400 M⁻¹ s⁻¹
same,t/2-diss,[2],28 min
same,BL (Binding Late),[3],68.1 RU
same,MR (Molar Ratio),[3],1.5
same,kon,[3],87500 M⁻¹ s⁻¹
same,t/2-diss,[3],4.9 min
same,BL (Binding Late),[4],199 RU
same,MR (Molar Ratio),[4],0.8
same,kon,[4],66000 M⁻¹ s⁻¹
same,t/2-diss,[4],18 min
same,ELISA signal,[5],0.02
same,ELISA signal,[6],3.15
same,ELISA signal,[7],0.02
same,ELISA signal,[8],3.16
same,ELISA signal,[9],0.023
same,ELISA signal,[10],3.16
same,ELISA signal,[11],0.018
same,ELISA signal,[12],3.13
same,ELISA signal,[13],3.15
